Values quoted from earlier work in paper PMC5818423.

What was measured:
[1] = target: CD26 (UniProt P27487)
[2] = target: Adenosine A1 receptor (UniProt P30542)
Chain of Adenosine A1 receptor (P30542 whole entry): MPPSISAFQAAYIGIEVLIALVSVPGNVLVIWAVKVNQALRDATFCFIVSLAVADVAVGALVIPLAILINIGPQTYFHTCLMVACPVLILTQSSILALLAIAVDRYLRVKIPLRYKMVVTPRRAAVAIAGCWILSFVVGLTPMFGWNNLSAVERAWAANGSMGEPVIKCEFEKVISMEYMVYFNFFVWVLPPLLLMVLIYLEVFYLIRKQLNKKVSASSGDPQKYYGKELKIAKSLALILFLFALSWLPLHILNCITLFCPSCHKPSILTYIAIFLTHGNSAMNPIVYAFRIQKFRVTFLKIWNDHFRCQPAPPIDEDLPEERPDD

Chain of Adenosine deaminase (P00813 2-363): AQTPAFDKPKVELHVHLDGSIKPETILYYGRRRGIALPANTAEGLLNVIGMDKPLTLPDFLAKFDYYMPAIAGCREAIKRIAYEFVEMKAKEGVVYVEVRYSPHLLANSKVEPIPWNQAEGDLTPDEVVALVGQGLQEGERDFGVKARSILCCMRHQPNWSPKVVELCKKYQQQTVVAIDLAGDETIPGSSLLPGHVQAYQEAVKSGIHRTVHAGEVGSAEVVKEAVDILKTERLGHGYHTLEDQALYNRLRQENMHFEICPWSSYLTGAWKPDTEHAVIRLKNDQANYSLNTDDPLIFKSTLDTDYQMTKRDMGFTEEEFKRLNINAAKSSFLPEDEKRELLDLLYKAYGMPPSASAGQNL
Chain of CD26 (P27487 39-766): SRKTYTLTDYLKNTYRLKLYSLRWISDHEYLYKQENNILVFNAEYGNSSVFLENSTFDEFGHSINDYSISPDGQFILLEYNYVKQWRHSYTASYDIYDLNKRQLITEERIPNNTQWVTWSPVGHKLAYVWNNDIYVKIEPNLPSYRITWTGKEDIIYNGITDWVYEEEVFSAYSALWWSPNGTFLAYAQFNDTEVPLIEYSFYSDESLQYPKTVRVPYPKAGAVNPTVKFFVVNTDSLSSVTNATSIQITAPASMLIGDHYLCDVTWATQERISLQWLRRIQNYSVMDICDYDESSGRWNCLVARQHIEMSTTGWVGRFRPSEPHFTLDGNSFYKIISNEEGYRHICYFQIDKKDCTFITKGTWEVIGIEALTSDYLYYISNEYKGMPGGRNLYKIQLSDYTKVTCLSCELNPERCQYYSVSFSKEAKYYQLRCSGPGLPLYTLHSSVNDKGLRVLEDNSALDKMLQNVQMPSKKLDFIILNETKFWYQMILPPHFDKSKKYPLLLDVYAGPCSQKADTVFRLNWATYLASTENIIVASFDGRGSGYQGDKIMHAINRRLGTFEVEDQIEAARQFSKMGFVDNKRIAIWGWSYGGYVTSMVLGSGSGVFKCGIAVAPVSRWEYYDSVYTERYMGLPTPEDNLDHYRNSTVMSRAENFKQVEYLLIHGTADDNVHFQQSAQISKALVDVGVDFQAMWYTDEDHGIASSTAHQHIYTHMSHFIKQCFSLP

Kd [1]: 18 nM | Kd [2]: 230 nM
Substance: Adenosine deaminase (from UniProt P00813)
